Measurements from paper PMC4897736, “Structural and biochemical characterization of the cell fate determining nucleotidyltransferase fold protein MAB21L1” (Scientific Reports, 2016).
Values belong to the molecule of their own block, whether it stands above or below them.

How the values were obtained:
MAB21L1 [1] = target: T1, MAB21L1 (Homo sapiens, UniProt Q13394); experiment: ITC, thermal shift; format: binding
T1 construct: full length
T1 sequence (Q13394 1-359): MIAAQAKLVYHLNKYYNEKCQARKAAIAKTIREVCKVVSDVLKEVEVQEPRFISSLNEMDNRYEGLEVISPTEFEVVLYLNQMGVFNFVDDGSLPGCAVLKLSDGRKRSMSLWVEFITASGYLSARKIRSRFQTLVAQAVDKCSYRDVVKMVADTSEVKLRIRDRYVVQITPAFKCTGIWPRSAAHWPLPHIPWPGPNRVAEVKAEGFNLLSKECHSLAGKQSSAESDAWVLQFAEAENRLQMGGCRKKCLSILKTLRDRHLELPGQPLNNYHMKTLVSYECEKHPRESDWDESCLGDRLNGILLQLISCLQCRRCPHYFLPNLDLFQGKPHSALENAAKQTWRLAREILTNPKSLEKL

MAB21L1 [2] = target: T1, MAB21L1; experiment: co-crystal structure ([…] Å), ITC, thermal shift; format: binding
MAB21L1 [3] = target: T2, MAB21L1 (Homo sapiens, UniProt Q13394 1-359); experiment: EMSA; 0.5 uM nucleic acid; EMSA: 20 mM Tris pH 8.0, 200 mM NaCl, 30 min on ice, 1% agarose gel, Gel-Red stain; conditions: protein: recombinant; tags: His-MBP tag removed by TEV; label: none (Gel-Red stain); single strand
T2 sequence: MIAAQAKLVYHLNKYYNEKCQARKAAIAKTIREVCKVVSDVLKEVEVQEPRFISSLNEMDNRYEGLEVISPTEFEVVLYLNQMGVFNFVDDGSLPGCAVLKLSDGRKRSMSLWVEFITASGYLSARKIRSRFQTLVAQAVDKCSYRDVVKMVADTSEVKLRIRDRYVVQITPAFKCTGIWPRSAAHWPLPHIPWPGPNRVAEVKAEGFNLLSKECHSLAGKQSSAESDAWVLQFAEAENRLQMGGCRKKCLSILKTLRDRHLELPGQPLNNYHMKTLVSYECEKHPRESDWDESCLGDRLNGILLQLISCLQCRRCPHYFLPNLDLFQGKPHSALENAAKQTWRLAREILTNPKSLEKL

MAB21L1 [4] = target: T2, MAB21L1; experiment: EMSA; 1 uM nucleic acid; EMSA: 20 mM Tris pH 8.0, 200 mM NaCl, 30 min on ice, 1% agarose gel, Gel-Red stain; conditions: protein: recombinant; tags: His-MBP tag removed by TEV; label: none (Gel-Red stain); blunt

Kd (MAB21L1 [1]): 3100 nM
Molecule: Nc1ncnc2c1ncn2[C@@H]1O[C@H](COP(=O)(O)OP(=O)(O)O)[C@@H](O)[C@H]1O [ADP]

Molecule: Nc1ncnc2c1ncn2[C@@H]1O[C@H](COP(=O)(O)OP(=O)(O)OP(=O)(O)O)[C@@H](O)[C@H]1O [ATP]
Kd (MAB21L1 [1]): 340 nM

Kd (MAB21L1 [2]): 410 nM
Molecule: Nc1ccn([C@@H]2O[C@H](COP(=O)(O)OP(=O)(O)OP(=O)(O)O)[C@@H](O)[C@H]2O)c(=O)n1 [CTP]

Molecule: GGAUACGUAACAACGCUUAUGCAUCGCCCCGCUACAUCCCUGAGCUGAC (ssRNA) [50mer ssRNA]
apparent K (half saturation) (MAB21L1 [3]): 3.3 µM

B1: 50mer dsRNA (dsRNA)
RNA 1: GGAUACGUAACAACGCUUAUGCAUCGCCCCGCUACAUCCCUGAGCUGAC
RNA 2: GUCAGCUCAGGGAUGUAGCGGGGCGAUGCAUAAGCGUUGUUACGUAUCC
apparent K (half saturation) (MAB21L1 [4]): 5 µM

Molecule: GGATACGTAACAACGCTTATGCATCGCCCCGCTACATCCCTGAGCTGAC (ssDNA) [50mer ssDNA]
apparent K (half saturation) (MAB21L1 [3]): 6.7 µM

B2: 50mer dsDNA (dsDNA)
DNA 1: GGATACGTAACAACGCTTATGCATCGCCCCGCTACATCCCTGAGCTGAC
DNA 2: GTCAGCTCAGGGATGTAGCGGGGCGATGCATAAGCGTTGTTACGTATCC
apparent K (half saturation) (MAB21L1 [4]): 6 µM
